1 molecule from patent US20040259816A1 can be followed below.

The test addresses PKC δ (rat), P09215. Description: cell-based or functional assay.

Sequence of PKC δ (rat), P09215 (P09215 whole entry, stated change not applied): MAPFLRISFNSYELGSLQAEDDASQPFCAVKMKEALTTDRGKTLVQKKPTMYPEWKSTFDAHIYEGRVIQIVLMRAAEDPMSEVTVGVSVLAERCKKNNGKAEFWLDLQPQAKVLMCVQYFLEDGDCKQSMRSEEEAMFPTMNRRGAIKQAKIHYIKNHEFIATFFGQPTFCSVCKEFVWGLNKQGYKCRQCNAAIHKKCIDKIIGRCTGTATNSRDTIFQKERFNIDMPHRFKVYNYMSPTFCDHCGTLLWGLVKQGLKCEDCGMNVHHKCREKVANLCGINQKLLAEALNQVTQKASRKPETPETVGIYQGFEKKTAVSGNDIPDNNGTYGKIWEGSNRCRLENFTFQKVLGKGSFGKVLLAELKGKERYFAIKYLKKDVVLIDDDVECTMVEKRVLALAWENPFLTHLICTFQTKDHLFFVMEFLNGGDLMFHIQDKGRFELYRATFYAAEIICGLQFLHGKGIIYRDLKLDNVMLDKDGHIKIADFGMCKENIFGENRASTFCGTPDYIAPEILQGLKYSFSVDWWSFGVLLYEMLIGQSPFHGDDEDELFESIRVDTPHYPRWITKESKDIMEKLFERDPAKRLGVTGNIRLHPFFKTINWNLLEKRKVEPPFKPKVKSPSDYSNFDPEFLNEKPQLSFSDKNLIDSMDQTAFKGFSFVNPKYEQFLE

B1: PKC δ translocation inhibitor δV1-1 conjugated to Drosophila antennapedia peptide (peptide)
peptide: SFNSYELGSLRQIKIWFQNRRMKWKK
As to B1, the inhibition of CCK-8 induced NF-κB activation (EMSA band intensity, rat pancreatic acini, 10 µM peptide) came out at 76% and the inhibition of TNF-α induced NF-κB activation (EMSA band intensity, rat pancreatic acini, 10 µM peptide) was 57%.
